B1: VhGlcNAcase (Vibrio harveyi) (protein)
chain: MGGSEYRVDLVVLSEQKQNCRFGLTFHNLSDQDLNSWGLTFAFDRYILPDSVSNGQLTQIGSFCTLKPEGIVLAANHHYYCEFSIGSNPFRYYSDGFNEAMIDFVVDGQPQRAQVDVTPIVLASPYRERSDIPASLTHAQPLLPKPNHIEVSDHSFTFDEQAGVAIYTDLANSAKAWLLEELQRIHQFTLSSSNSGKIIFKSNPTLDEGAYKLKVSEESIKIEAGSSSGFTHACATLLQLLKRDEATKTMEAVCCSIIDSPRFRYRGMMLDCARHFHSVEQVKRLINLLAHYKLNTFHWHLTDDEGWRVEIKSLPQLTEIGAWRGIDETIEPQYTHLSQRYGGFYTQEEIRDVIAFAEQRGITIIPEIDVPGHCRAAIKSLPHLLIEAEDTTEYRSIQHYNDNVINPALPGSYEFIDKVLEEIAALFPAPYVHIGADEVPNGVWSKSPACQALMEQLGYTDYKELQGHFLRHAEDKLRKLGKRMLGWEEAQHGNKVSKDTVIYSWLSEEAALNCARQGFDVVLQPAQTTYLDMTQDYAPEEPGVDWANPLPLEKAYNYEPLAEVPADDPIRKRIWGIQTALWCEIINNPSRMDYMIFPRLTAMAEACWTEKQHRDWTDYLSRLKGHLPLLDLQGVNYRKPWK

These molecules were tested on CC(=O)N[C@H]1[C@H](Oc2ccc([N+](=O)[O-])cc2)O[C@H](CO)[C@@H](O)[C@@H]1O (assay: purified protein). Settings: 100 mM sodium phosphate pH 7.0, 37°C, 10 min, 0–500 µM substrate.
Format: biochemical, Vibrio harveyi
For VhGlcNAcase (Vibrio harveyi; D303A), the Km was 302 ± 28 µM and the kcat was 1.4 ± 0.07 s⁻¹.
Work on VhGlcNAcase (Vibrio harveyi; D303N) yielded a Km of 325 ± 30 µM and a kcat of 1.8 ± 0.08 s⁻¹.
With VhGlcNAcase (Vibrio harveyi; D437N) the Km was 339 ± 47 µM and the kcat was 0.02 ± 0.001 s⁻¹.
With VhGlcNAcase (Vibrio harveyi; D532A) the Km was 153 ± 9 µM and the kcat was 1.6 ± 0.03 s⁻¹.
For VhGlcNAcase (Vibrio harveyi; E438A), the Km was 128 ± 16 µM and the kcat was 0.11 ± 0.005 s⁻¹.
VhGlcNAcase (Vibrio harveyi; E438Q) was tested, and the Km was 120 ± 13 µM and the kcat was 0.13 ± 0.005 s⁻¹.
VhGlcNAcase (Vibrio harveyi; E584A) showed a Km of 178 ± 20 µM and a kcat of 18 ± 0.7 s⁻¹.
With VhGlcNAcase (Vibrio harveyi; H373A) the Km was 307 ± 31 µM and the kcat was 1.1 ± 0.06 s⁻¹.

What follows are molecules tested against T1, VhGlcNAcase (Vibrio harveyi, UniProt D9ISE0, D437A) (assay: colorimetric 4-nitrophenol release at […] nm, Michaelis-Menten fit). Settings: 100 mM sodium phosphate pH 7.0, 37°C, 10 min, 0–500 µM substrate.
T1 construct: full-length nag2 (residues 1-642) plus C-terminal RSRS-His6 (10 extra residues), pQE-60, E. coli M15 (pREP4); 74 kDa expected, 76 kDa by SEC; monomer; EC 3.2.1.52
Format: biochemical
In the case of CC(=O)N[C@H]1[C@H](Oc2ccc([N+](=O)[O-])cc2)O[C@H](CO)[C@@H](O)[C@@H]1O [pNP-GlcNAc, 4-nitrophenyl N-acetyl-β-D-glucosaminide], the Km is reported as 390 ± 32 µM.

Substrate: CC(=O)N[C@H]1[C@H](Oc2ccc([N+](=O)[O-])cc2)O[C@H](CO)[C@@H](O)[C@@H]1O
Test: purified protein
Settings: 100 mM sodium phosphate pH 7.0, 37°C, 10 min, 0–500 µM substrate
Remark: another data set of the same source
B1 was tested, and the Km was 92 ± 6 µM.

Reference: article PMC8098473, “Structural basis of chitin utilization by a GH20 β-N-acetylglucosaminidase from Vibrio campbellii strain ATCC BAA-1116” (Acta Crystallographica. Section D, Structural Biology, 2021)
